{"source": "patent US20100041597A1", "about": "“PEPTIDES TARGETED TO PROTEIN KINASE C ISOFORMS AND USES THEREOF” (priority 2005, published 2010)", "key": {"[1]": {"target": "PKC-βII (purified isoform) (Homo sapiens (Human)) (UniProt P05771)", "sequence (P05771 other isoform, or with tags, fused parts or gaps limits assumed)": "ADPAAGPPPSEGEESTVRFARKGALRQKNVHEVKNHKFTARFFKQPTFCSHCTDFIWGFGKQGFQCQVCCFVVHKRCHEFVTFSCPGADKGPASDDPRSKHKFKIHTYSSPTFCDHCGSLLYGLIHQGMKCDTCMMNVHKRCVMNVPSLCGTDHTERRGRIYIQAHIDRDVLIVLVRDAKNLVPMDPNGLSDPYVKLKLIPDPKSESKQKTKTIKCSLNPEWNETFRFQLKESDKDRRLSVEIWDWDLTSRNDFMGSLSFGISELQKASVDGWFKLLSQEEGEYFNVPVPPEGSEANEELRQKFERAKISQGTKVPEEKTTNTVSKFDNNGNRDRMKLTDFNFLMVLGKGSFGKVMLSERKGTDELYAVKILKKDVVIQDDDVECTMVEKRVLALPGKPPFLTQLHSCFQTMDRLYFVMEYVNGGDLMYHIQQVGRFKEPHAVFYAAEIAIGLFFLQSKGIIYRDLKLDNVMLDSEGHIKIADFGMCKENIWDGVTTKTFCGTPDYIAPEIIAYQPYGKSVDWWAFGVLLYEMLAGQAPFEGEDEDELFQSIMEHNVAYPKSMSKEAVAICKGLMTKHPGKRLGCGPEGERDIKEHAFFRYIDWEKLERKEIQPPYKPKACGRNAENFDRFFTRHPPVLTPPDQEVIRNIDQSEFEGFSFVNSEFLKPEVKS", "experiment": "competitive ELISA on purified PKC-βII vs anti-PKC-βII Ab; PRE 50 µM"}, "[2]": {"target": "PKC-βII (purified isoform) (Homo sapiens (Human)) (UniProt P05771)", "experiment": "competitive ELISA on purified PKC-βII vs anti-PKC-βII Ab; PRE 100 µM"}, "[3]": {"target": "PKC-βII (purified isoform) (Homo sapiens (Human)) (UniProt P05771)", "experiment": "competitive ELISA on purified PKC-βII vs anti-PKC-βII Ab; PRE 200 µM"}, "[4]": {"target": "PKC-δ (purified isoform) (Homo sapiens (Human)) (UniProt Q05655)", "sequence (Q05655 whole entry, stated change not applied, canonical isoform)": "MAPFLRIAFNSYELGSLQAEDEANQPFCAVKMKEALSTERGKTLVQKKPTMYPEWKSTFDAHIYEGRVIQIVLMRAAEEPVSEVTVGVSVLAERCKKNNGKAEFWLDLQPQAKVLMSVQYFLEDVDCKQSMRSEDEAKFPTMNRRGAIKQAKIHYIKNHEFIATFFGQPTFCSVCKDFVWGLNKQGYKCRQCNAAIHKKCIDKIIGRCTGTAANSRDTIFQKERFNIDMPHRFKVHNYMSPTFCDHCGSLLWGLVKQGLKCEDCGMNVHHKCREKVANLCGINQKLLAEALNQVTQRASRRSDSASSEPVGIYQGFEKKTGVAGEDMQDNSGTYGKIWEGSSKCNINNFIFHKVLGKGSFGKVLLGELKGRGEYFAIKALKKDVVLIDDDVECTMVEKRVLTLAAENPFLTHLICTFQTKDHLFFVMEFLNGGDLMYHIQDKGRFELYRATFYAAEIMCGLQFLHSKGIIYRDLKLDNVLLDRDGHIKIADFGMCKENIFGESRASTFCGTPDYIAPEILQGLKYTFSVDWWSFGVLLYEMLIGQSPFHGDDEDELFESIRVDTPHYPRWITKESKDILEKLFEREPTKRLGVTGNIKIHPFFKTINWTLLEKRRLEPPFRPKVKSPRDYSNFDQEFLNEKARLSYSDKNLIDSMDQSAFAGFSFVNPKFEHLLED", "experiment": "competitive ELISA on purified PKC-δ vs anti-PKC-δ Ab; PRE 50 µM"}, "[5]": {"target": "PKC-δ (purified isoform) (Homo sapiens (Human)) (UniProt Q05655)", "experiment": "competitive ELISA on purified PKC-δ vs anti-PKC-δ Ab; PRE 100 µM"}, "[6]": {"target": "PKC-δ (purified isoform) (Homo sapiens (Human)) (UniProt Q05655)", "experiment": "competitive ELISA on purified PKC-δ vs anti-PKC-δ Ab; PRE 200 µM"}, "[7]": {"target": "PKC-βI (purified isoform) (Homo sapiens (Human)) (UniProt P05771)", "sequence (P05771 2-671 limits assumed)": "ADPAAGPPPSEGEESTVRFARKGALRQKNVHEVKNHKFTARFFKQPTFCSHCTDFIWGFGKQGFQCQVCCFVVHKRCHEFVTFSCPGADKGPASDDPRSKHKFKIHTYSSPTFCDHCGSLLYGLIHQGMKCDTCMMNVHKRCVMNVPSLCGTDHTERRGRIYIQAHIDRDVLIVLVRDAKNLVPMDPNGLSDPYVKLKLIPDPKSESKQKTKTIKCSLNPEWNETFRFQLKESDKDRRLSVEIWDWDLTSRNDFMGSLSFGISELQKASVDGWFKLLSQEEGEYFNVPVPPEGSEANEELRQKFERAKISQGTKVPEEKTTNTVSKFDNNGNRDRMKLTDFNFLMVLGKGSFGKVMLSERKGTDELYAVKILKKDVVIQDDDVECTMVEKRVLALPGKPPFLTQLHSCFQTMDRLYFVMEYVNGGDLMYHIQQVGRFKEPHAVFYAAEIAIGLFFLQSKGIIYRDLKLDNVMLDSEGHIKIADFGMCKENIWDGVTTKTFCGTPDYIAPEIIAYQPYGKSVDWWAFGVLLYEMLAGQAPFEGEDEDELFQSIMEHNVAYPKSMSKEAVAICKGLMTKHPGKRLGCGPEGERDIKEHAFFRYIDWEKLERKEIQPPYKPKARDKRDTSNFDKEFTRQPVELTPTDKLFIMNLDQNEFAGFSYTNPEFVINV", "experiment": "competitive ELISA on purified PKC-βI vs anti-PKC-βI Ab; PRE 50 µM"}, "[8]": {"target": "PKC-βI (purified isoform) (Homo sapiens (Human)) (UniProt P05771)", "experiment": "competitive ELISA on purified PKC-βI vs anti-PKC-βI Ab; PRE 100 µM"}, "[9]": {"target": "PKC-βI (purified isoform) (Homo sapiens (Human)) (UniProt P05771)", "experiment": "competitive ELISA on purified PKC-βI vs anti-PKC-βI Ab; PRE 200 µM"}, "[10]": {"target": "PKC-βI (purified isoform) (Homo sapiens (Human)), P05771", "sequence (P05771 2-671 limits assumed)": "as above", "experiment": "competitive ELISA on purified PKC-βI vs anti-PKC-βI Ab; PRE 50 µM", "details": "remark: other sources report otherwise"}, "[11]": {"target": "PKC-βI (purified isoform) (Homo sapiens (Human)), P05771", "experiment": "competitive ELISA on purified PKC-βI vs anti-PKC-βI Ab; PRE 100 µM", "details": "remark: other sources report otherwise"}, "[12]": {"target": "PKC-βI (purified isoform) (Homo sapiens (Human)), P05771", "experiment": "competitive ELISA on purified PKC-βI vs anti-PKC-βI Ab; PRE 200 µM", "details": "remark: other sources report otherwise"}, "[13]": {"target": "PKC-ε (purified isoform) (Homo sapiens (Human)) (UniProt Q02156)", "sequence (Q02156 whole entry, canonical isoform)": "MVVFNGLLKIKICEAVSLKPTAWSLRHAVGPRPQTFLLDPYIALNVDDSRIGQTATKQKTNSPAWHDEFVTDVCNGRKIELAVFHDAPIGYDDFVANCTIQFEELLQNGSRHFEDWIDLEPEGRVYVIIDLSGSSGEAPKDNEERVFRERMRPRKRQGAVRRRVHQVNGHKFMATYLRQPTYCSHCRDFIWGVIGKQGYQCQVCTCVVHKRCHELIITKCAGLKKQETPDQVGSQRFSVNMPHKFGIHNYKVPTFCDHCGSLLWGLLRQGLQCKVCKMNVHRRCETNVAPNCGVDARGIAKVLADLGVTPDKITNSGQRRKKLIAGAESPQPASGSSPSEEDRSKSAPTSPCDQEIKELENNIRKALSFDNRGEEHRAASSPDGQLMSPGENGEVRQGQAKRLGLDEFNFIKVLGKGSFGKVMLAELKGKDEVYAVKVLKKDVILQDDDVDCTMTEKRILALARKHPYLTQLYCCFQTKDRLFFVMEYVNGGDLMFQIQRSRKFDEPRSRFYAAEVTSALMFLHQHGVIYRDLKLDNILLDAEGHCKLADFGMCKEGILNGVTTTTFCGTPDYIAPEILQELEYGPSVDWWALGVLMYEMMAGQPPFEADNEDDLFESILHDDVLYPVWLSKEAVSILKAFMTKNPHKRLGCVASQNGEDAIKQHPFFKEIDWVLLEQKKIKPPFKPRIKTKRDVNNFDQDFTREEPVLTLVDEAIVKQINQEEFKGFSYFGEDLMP", "experiment": "competitive ELISA on purified PKC-ε vs anti-PKC-ε Ab; PRE 50 µM"}, "[14]": {"target": "PKC-ε (purified isoform) (Homo sapiens (Human)) (UniProt Q02156)", "experiment": "competitive ELISA on purified PKC-ε vs anti-PKC-ε Ab; PRE 100 µM"}, "[15]": {"target": "PKC-ε (purified isoform) (Homo sapiens (Human)) (UniProt Q02156)", "experiment": "competitive ELISA on purified PKC-ε vs anti-PKC-ε Ab; PRE 200 µM"}}, "data": [{"binder": "Ac-ISIGILQNADK-NH2", "note": "[PRE 7]", "values": [{"measurement": "binding capacity (%)", "setting": "[1]", "value": 5.42, "unit": "%"}, {"measurement": "binding capacity (%)", "setting": "[2]", "value": 11.1, "unit": "%"}, {"measurement": "binding capacity (%)", "setting": "[3]", "value": 2.59, "unit": "%"}]}, {"binder": "Ac-ISIGILNQADK-NH2", "note": "[PRE 10]", "values": [{"measurement": "binding capacity (%)", "setting": "[4]", "value": 0, "unit": "%"}, {"measurement": "binding capacity (%)", "setting": "[5]", "value": 0, "unit": "%"}, {"measurement": "binding capacity (%)", "setting": "[6]", "value": 9.47, "unit": "%"}, {"measurement": "binding capacity (%)", "setting": "[7]", "value": 3.77, "unit": "%"}, {"measurement": "binding capacity (%)", "setting": "[8]", "value": 4.35, "unit": "%"}, {"measurement": "binding capacity (%)", "setting": "[9]", "value": 0, "unit": "%"}]}, {"binder": "ILEDKGGDAQNLIGISI", "note": "[PRE 8]", "values": [{"measurement": "binding capacity (%)", "setting": "[10]", "value": 0, "unit": "%"}, {"measurement": "binding capacity (%)", "setting": "[11]", "value": 0, "unit": "%"}, {"measurement": "binding capacity (%)", "setting": "[12]", "value": 0, "unit": "%"}]}, {"binder": "RRKKGGKDFVVKR", "note": "[PRE 1]", "values": [{"measurement": "binding capacity (%)", "setting": "[13]", "value": 19.8, "unit": "%"}, {"measurement": "binding capacity (%)", "setting": "[14]", "value": 5.47, "unit": "%"}, {"measurement": "binding capacity (%)", "setting": "[15]", "value": 0.83, "unit": "%"}]}, {"binder": "Ac-AKGIQEVKGGKDAQNLIGISI-NH2", "note": "[PRE 5]", "values": [{"measurement": "binding capacity (%)", "setting": "[7]", "value": 0, "unit": "%"}, {"measurement": "binding capacity (%)", "setting": "[8]", "value": 0, "unit": "%"}, {"measurement": "binding capacity (%)", "setting": "[9]", "value": 0, "unit": "%"}]}, {"binder": "Ac-RDAQNLIGISI-NH2", "note": "[PRE 11]", "values": [{"measurement": "binding capacity (%)", "setting": "[7]", "value": 9.86, "unit": "%"}, {"measurement": "binding capacity (%)", "setting": "[8]", "value": 14.2, "unit": "%"}, {"measurement": "binding capacity (%)", "setting": "[9]", "value": 12.5, "unit": "%"}, {"measurement": "binding capacity (%)", "setting": "[1]", "value": 7.14, "unit": "%"}, {"measurement": "binding capacity (%)", "setting": "[2]", "value": 11, "unit": "%"}, {"measurement": "binding capacity (%)", "setting": "[3]", "value": 6.4, "unit": "%"}]}]}
